Experimental data reported in the nanobody polyreactivity screen of Harvey et al. (2022).

Assay: yeast display, Sf9 membrane polyspecificity reagent, FACS + sequencing; frameworks hold sequencing errors
Method in brief: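 A synthetic nanobody library was expressed on Saccharomyces cerevisiae BJ5465 by galactose induction for 36–48 hours. The library was stained for 1 hour at 4 °C with 10% biotinylated, detergent-solubilized Sf9 membrane reagent and enriched with streptavidin microbeads before FACS. Low and high (top ~1%) gates were set on anti-HA fluorescence for expression and streptavidin fluorescence for reagent binding, and each polyreactivity label reflects the gate of origin.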

Sequence	polyreactivity (PSR sort gate)
QVQLVESGGGLVQAGGSLRLSCAASGFTFRYYAMGWYRQAPGKERELVAAISWSGASTYYADSVKGRFTISRDNAKNTVYLQMNSLKPEDTAVYYCAADIPGTYYYWGQGTEVTVSS	high polyreactivity
QVQLVESGGGLVQAGGSLRLSSAASGITFNLNDMGWSRQAPGKERELVAAITSGGNTSYADSVKGRFTISRDNAKNTVYLQMNSLKPEDTAVYYCPTEDFRTDTGMYYWGQGTQVTVSS	low polyreactivity
QVQLVESGGGLVQAGGSLRLSCAASGSTFGWYAMGWYRQAPGKERELVAAISTSGNTYYADSVKGRFTISRDNAKNTVYLQMNSLKPEDTAVYYCAKYVNPDHDYWGQGTQVTVSS	low polyreactivity
QVQLVESGGGLVQAGGSLRLSCAASGHNFFYYTMVWYRPAPGKERELVAGITIGGSTNYADSVKGRFTISRDNAKNNVYLVMNSLKPEDTAVYYCNVDKYVYIYSYWEYYYWGQGTQVTVSS	low polyreactivity
QVQLVESGGGLVQAGGSLRLSCAASGITLTIYVMGWYRQAPGKEREFVAAISKSGGSTYYADSVKGRFTISRDNAKNTVYLQMNSLKPEDTAVYYCAADVILYDFADYYVIYDYWGQGTQVTVSS	high polyreactivity
QVQLVESGGGLVQAGGSLRLSCAASGRTFDINDMGWYRQAPGKEREFVAAIDWSGGYTYYADSVKGRFIISRDNAKNTVYLQMNSQKPEDTAVYYCNARRKRSYDYWGQGTQGTVSS	low polyreactivity
QVQLVESGGGLVQAGGSLRLSCAASGIIISINAMGWYRQAPGKERELVAAISRSGGSTNYADSVKGRFTISRDNAKNTVYLQMNSLKPVDTAVDYCATVHRYSVWSHNYWGQGTQVTVSS	high polyreactivity
QVQLVESGGGLGQAGGSLRLSCAASGLIFSPYDMGWYRQAPGKERELVGAISNGDSTNYADSVKGRFTISRDNAKNTVYLQMNSLKAEDTAVYYCNAAIPSWLEYEYWGQGTQVTVSS	low polyreactivity
QVQLVESGGGLVQAGGSLRLSCAASGGIFRFNAMGWYRQAPGKERELVAGISSTYYADSVKGRFTISRDNAKNTVYLQMNSLKPEDTAVYYCAAAGPEEHGYTYPGNNQMEYWGQGTQVTVSS	low polyreactivity
QVQLVESGGGLVQAGGSLRLSCAASGSIFLPYAMGWYRQAPGKEREFVAAIRWSTGRTFYADSVKGRFTISRDNAKNTVYLQMNSLKPEDTAVYYCAAVWPDVRGYDYWGQGTQVTVSS	high polyreactivity
QVQLVESGGGLVQAGGSLRLSCAASGRTFRSDNAMGWYRQAPGKERELVAAISQGGGTYYADSVKGRFTISRDNAKNTVYLQMNSLKPEDTAVSYCARDAYYADPSLWYYTYDYWGQCTQVTVSS	low polyreactivity
QVQLVESGGGLVQAGGSLRLSCAASGRIYVTNAMGWYRQAPGKERELVASISSGGRTHYADSVKGRFTISRDNAKNTVYLQMNSLKPEDTAVYYCAKPPLYYYPDLRGEEFYYWGQGTQVTVSS	low polyreactivity
QVQLVESGGGLVQAGGSLRLSCAASGRTFYDYAMGWYRQAPGKERELVASINSDGSTYYADSVKGRFTISLDNAKNTVYLQMNSLKPEDTAVYYCAADALLYSVYYRMYGYDYWGQGTQVTVSS	low polyreactivity
QVQLVESGGGLVQAGGSLRLSCAASGSIFYPYTMGWYRQAPGKETEFVARITWSGGSTYYADSVKGRFTISRDNAKNTVYLQMNSLKPEDSAVYYCARVAWSESDWQKMDYWGQGTQVTVSS	high polyreactivity
QVQLVESGGGLVQAGGSLRLSCAASGFTFSYSAMGGYSQAPGKERELVAAISRSGSGTSYADSVKGRFTISRDNAKNTVYLQMTSLKPEDTAVYYCAARGGTTRYGNDYWGQGTQVTVSS	high polyreactivity
QVQLVESAGGLVQAGGSLSLSCAASGITFIPNPMGWYRQAPGKERELVAAISISGGRTYYADSVKGRFTISRDNAKNTVYLQMNSLKPEDTAVYYCAADRADFFVIRTIDPYDYWGQGTQVTVSS	low polyreactivity
QVQLVESGGGLVQAGGSLRLTSAASGFTFPYTDMGWYRPAPGKERELVADISSGGSTYYADSVKGRFTISRDNAKINVYLQMISLKPEDTAVYYCAAREAYSIRIYQGFGYWGQGTQVTVSS	low polyreactivity
QVQLVESGGCLVQAGGSLSLSCAASGSTFVAYAMGWYRQAPGKESELVAAISKSGVRTYYADYVKGRFTISRDNAKNTVYLQMNSLKPEDSAFYYCAALTYYSQVTSSVSLQQYGYWGQVTQVTVSS	low polyreactivity
QVQLVESGGGLVQAGGSLRLSCAASGRTLGTYAMGWYRQAPGKERELVAAISVSSGSTYYADSVKGRFTISRDTAKNTVYLQMNSLKPEDTAVYYCAALPVYHYDSWGQGTQVTVSS	high polyreactivity
QVQLVESGGGLVQAGGSLRLSCAASGYTIYIYAMGWYRQAPGKEREFVATISRSGGSTSYADSVKGRFTISRDNAKNTVYLQMNSLKPEDTSVYYCAAEWGYYAVGAQYYYWGQGTQVTVSS	high polyreactivity
QVQLVESGGGLVQAGGSLRLSCAASGRIFRAYAMGWYRQAPGKERELVAAITSGVSTNYADSVKGRFTISRDNAKNTVYLQMNSLKPEDTAVYYCAVLGKRNAYYYWGQGTQVTVSS	low polyreactivity
QVQLVESGGGLVQAGGSLGLSCAASGFTVYRYAMGWSRQAPGKERELVARTYYADSVKRRFTISRDNAKNTVYLQMNSLKPEDTAVYYCNIDLELEYRYEYWGQGTQVTVSS	low polyreactivity

Sequence	polyreactivity (PSR sort gate)
QVQLVESGGGLVQAGGSLRLSCAASGFIFTWYAMGWYRQAPGKEREVVAGISRSGGRTYYADSVKGRFTISRDNAKNTVYLQMNSLKPEDTAVYYCNAVLVGYRPYREFDHWGQGTQVTVSS	high polyreactivity
QVQLVESGGGLVQAGGSLRLSCAASGRIFAGYALGWYRPAPGKERELVATSTRGGSTNYADSVKRPFTISRDNAKNTVYLQMNSLKPEDTAVYYCAAPYSSYKVRPYDYWGQGTQVTVSS	low polyreactivity
QGHLVESGGGLVQAGGSLRLSCAASGFIFDYYAMGWYRQAPRKERELVAAITRDGGGTYYADSVTGRFTISRDNAKNTVYLQMNSLKPEDTAVYYCAARRAVRLYYWGQGTQVTVSS	high polyreactivity
QVQLVESRGGLVQAGGSLLLSFAASGRTYPYNAMGWYIQAPRKERELVAGISSGGTTTYADSVKGRFTISRDNAKNTVYLQMNSLKPEDTAVYYCAATVIIFDHSLPGWDDYDYWGQGTQVTVSS	low polyreactivity
QVQLVESGGGLVQAGGSLRLSCAASGRTFTYYAMGWYRQAPGKERELVAAISSTGGSTYYADSVKGRFTISRDNAKNTVTLQMNSLKPEDTAVYYCNVAFDDFDYWGQGTQVTVSS	low polyreactivity
QVQLVESGGGLVQAGGSLRLSCAASGRTFRKYTMGWYRQAPGKEREFVAAITYSGGSTYYADSVKGRFTISRDNAKNTGYLQMNSLKPEDTAVSYCFTRGGYYLYYSYYYWGQGTQVTVSS	high polyreactivity
QVQLVESGGGLVQAGGSLRLSCAAAGSIFVWYVMGWYRQAHGKEMELVAAITWSAARTYYADSVKGRFTISRDNAKNTVYLLMNSLKPEDTAVYYCAADHVSYQPSSRIFDYWGQGTQVTVSS	low polyreactivity
QVQLVESGGGLVQAGGSLRLSCAASGSIFGYYDMGWYRQAPGKERELVAAISYRGSSTYYADSVKGRFTISRDNAKNTVYLQMNSLKPEDTAVYYCASRYYYSYPPQEDDYWGQGTQVTVSS	high polyreactivity
QVQLVESGGGLVQAGGSLRLSCAASGSISAGNAMGWYRQAPGKERDLVAAISGSGGSTYYADSVKGRFTISRYNAKNTVYLQMNRLKPEDTAVYYCAARGGYRLRYIPYVRYDYWGQGTQVTVSS	high polyreactivity
QVQLVESGGGLVQAGGSLRLSCAASGRTFGYNAMGWYRQAPGKERELVAAITIGGSTNYADSVNGRFTISRDNAKNTVYLQMNSLKPEDTAVYYCAAYDTLLYWVEFYYWGQGTQVTVSS	low polyreactivity
QGQLVESGGGLVQAGGSLRLSCAASGFTFVGNAMGWYRQAPGKERELVATITSGGNTKYADSVKGRFTISRDNAKYTVYLQKNSLKPEDTAVYYCAAAKYNYRRFNYWGQGTQVTVSS	low polyreactivity
HVQVVESGGGLVQEGGSLRLICAASGYLFAYYAMGWFRQAPGKERELVAPIRSGGSTNYADSVKGRFTISRDNAKNTVYLQMNSLKPEDTAVYYCAKGDRRWTLCRPDYDYWGQGTQVTVAS	low polyreactivity
QVQLVESGGGLVQAGGSLRLTCAASGFTFGTYAMGWYRQAPGKERELVAAITWSGGSTYYADSVKGRFTISRDNAKNTVYLQMNSLKPEDTAVYYCAAESADYNDGDYWGQGTQVTVSS	low polyreactivity
QVQLVESGGGLVQAGGSLRLSCAASGSTFGTYAMGWYRQAPGKEREFVAVIRWSGGSTYYADSVKGRFTISRDNAKNTVYLQMNSLKPEDTAVYYCNADTRVKYVGWMYYWGQGTQVTVSS	high polyreactivity
QVQLVESGGGLVQAGGSLRLICAASGRIFGYNAMGWYRQEPGKERELVAAISSGGSTYYADSVKGRFTISRDHAKNTVYLQMNSLKPEDTAVYYCAAEDYPPYTTEYDYWGQGTQVTVSS	low polyreactivity
QVQLVESGGGLVQAGGSLRLSCAASGSIFDRYAMGWYRQAPGKERELVAAISKSGGRTYYADSVKGRLTISRDNAKNTVYLQMNSLKPEDTAVYYCAADPLLGYLSHYYWGQGTQVTVSS	high polyreactivity
QVQLVESGGGLVQAGGSLRLSCAASGRTFYSYTMGWYRPAPGKERELVAAINRGGSTYYADSVKGRFTISRDNAKNTVYLQMNSLKPEDTAVYYCAVGYAHSSNRRYYYKKTHGYWGQGTQVTVSS	low polyreactivity
QVQLVESGGGLVQAGGSLRLSCSASGSTFESNAMGWYRQAPGKERELVASISGSGGSTFYADSVKGRFTISRDNAKNTVYLQMISLKPEDTAVYYCAAYKEPYYEEYGYWGQGTQVTVSS	low polyreactivity
QVQLVESGGGLVQAGGSLRLSCAASGNIFLSYAMGWYRQAPGKERDLVAGISASGGRTYYADSVKGRFTISRDNAKNTVYFQMNSLKPEDTALYYCNAGWGVVIRRYPTYDYWGQGTQVTVSS	high polyreactivity
QVQLVESGGGLVQAGGSLRLSCAASGFTFTYNAMGWYRQAPGKERELVAGISWRGGTTYYADSVKGRFTISRDNAKNTVYLQMNSLKPEDTAVYYCAARNYYRGSGWPSNRGYYWGQGTQVTVSS	high polyreactivity
QVQLVESGGGLVQAGGSLRLSCAAYVFIFYVYAMGWYRQAHGKERELVAAISGGGDSTYYADSVKGRFTISRDNAKNTVYLQMNSLKPEDTAVYYCATRRYPEVVNGEYGYWGQGTQVTVSS	low polyreactivity
